Measured values reported in the supplement of paper PMC7125110.
± gives the standard error. For part of these data: Variants at the floor of the assay were thinned out.

B1: glmS ribozyme (parent)
chain: AUAAAAGCGCCAGAACUACAGAAAUGUAGUUGACGAGGAGGAGGUUUAUCGAAUUUUCGGCGGAUGCCUCCAAA

Key:
Settings in all cases: with glucosamine-6-phosphate
glucosamine-6-phosphate [1] = variants of: B1; experiment: kcat; higher = faster cleavage; RNA array
How it was run: (§1)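 Glucosamine-6-phosphate, from 40 μM to 10 mM in HEPES/KCl/Mg(OAc)2 buffer, was flowed over sequenced MiSeq chips carrying barcoded ribozyme variants transcribed in situ by E. coli RNA polymerase. A hybridised Cy3 probe tracked the variants at 37 °C as tiles were imaged over ~14 h. kobs, kcat and KM were obtained by fitting normalised per-tile medians to exponential decays and then applying weighted Michaelis–Menten fits across concentrations.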

glucosamine-6-phosphate [2] = variants of: B1; experiment: self-cleavage kobs at 160 uM GlcN6P; higher = faster cleavage; RNA array
How it was run: as §1

glucosamine-6-phosphate [3] = variants of: B1; experiment: KM; higher = weaker cofactor use; RNA array
How it was run: as §1

glucosamine-6-phosphate [4] = variants of: B1; experiment: self-cleavage kobs at 2500 uM GlcN6P; higher = faster cleavage; RNA array
How it was run: as §1

glucosamine-6-phosphate [5] = variants of: B1; experiment: self-cleavage kobs at 10000 uM GlcN6P; higher = faster cleavage; RNA array
How it was run: as §1

glucosamine-6-phosphate [6] = variants of: B1; experiment: self-cleavage kobs at 40 uM GlcN6P; higher = faster cleavage; RNA array
How it was run: as §1

glucosamine-6-phosphate [7] = variants of: B1; experiment: self-cleavage kobs at 640 uM GlcN6P; higher = faster cleavage; RNA array
How it was run: as §1

Work on AUAAAAGCGCCAAAACUACAGAAAUGUAGUUGACGAGGAGGAGGUUUAUCGAAUUUUCGGCGGAUGCGUCCAAA yielded a kcat (glucosamine-6-phosphate [1]) of 1.81e-05 ± 5e-06 s⁻¹.

With AUAAAAGCGCCAGAACUACAGAAAUGUAGUUGUCGAGGAGGAGGUUUAUCGAAUUUUCGGCGGAUUCCUCCAAA the kcat (glucosamine-6-phosphate [1]) was 1.11e-05 ± 1.2e-06 s⁻¹ and the “self-cleavage kobs at 160 uM GlcN6P” value (glucosamine-6-phosphate [2]) was under 1e-05 s⁻¹.

In the case of AUAAAAGCGCCAGAACUACAGAAAUGUAGUUGACGAAGAGGAGGUUUAUCGAAUUUUCGGCGGAAGCCUCCAAA, the kcat (glucosamine-6-phosphate [1]) is reported as 0.000179 ± 2.2e-05 s⁻¹, the KM (glucosamine-6-phosphate [3]) is reported as 4340 ± 1300 µM and the “self-cleavage kobs at 2500 uM GlcN6P” value (glucosamine-6-phosphate [4]) is reported as 7.66e-05 ± 1.9e-05 s⁻¹. The “self-cleavage kobs at 10000 uM GlcN6P” value (glucosamine-6-phosphate [5]) was 0.000124 ± 1.4e-05 s⁻¹.

In the case of AUAAAAGCGCCAGAACUACAGAAAUGUAGUUGACGAGGAGGAGGUUUAUCGAAUUUUCAGCGUAUGCCUCCAAA, the kcat (glucosamine-6-phosphate [1]) is reported as under 1e-05 s⁻¹, the KM (glucosamine-6-phosphate [3]) is reported as 294 ± 68 µM and the “self-cleavage kobs at 40 uM GlcN6P” value (glucosamine-6-phosphate [6]) is reported as under 1e-05 s⁻¹. The “self-cleavage kobs at 2500 uM GlcN6P” value (glucosamine-6-phosphate [4]) was under 1e-05 s⁻¹.

AUAAAAGCGCCAGAACUACAGAAAUGUAGUUGACGAGGAGGAGGUUUAUCGAAUUUACGCCGGAUGCCUCCAAA showed a kcat (glucosamine-6-phosphate [1]) of 2.43e-05 ± 9.7e-06 s⁻¹.

In the case of AUAAAAGCGCCAGAACUACAGAAAUGUAGUUGACGAGGAGGAGGAUUAUUGAAUUUUCGGCGGAUGCCUCCAAA, the kcat (glucosamine-6-phosphate [1]) is reported as 0.000477 ± 0.00018 s⁻¹, the “self-cleavage kobs at 2500 uM GlcN6P” value (glucosamine-6-phosphate [4]) is reported as 3.25e-05 ± 1.4e-05 s⁻¹ and the “self-cleavage kobs at 10000 uM GlcN6P” value (glucosamine-6-phosphate [5]) is reported as 0.000107 ± 1.3e-05 s⁻¹.

AUAAAAGCGCCACAACUACAGAAAUGUAGUUGACGAGGAGGAGGUUUAUCGAAUUUUCGGCGGAUGCCUUCAAA was tested, and the kcat (glucosamine-6-phosphate [1]) was 0.000154 ± 4.9e-06 s⁻¹, the KM (glucosamine-6-phosphate [3]) was 1400 ± 140 µM and the “self-cleavage kobs at 640 uM GlcN6P” value (glucosamine-6-phosphate [7]) was 4.57e-05 ± 8.9e-06 s⁻¹. For the same variant, the “self-cleavage kobs at 2500 uM GlcN6P” value (glucosamine-6-phosphate [4]) was 0.000103 ± 1.2e-05 s⁻¹ and the “self-cleavage kobs at 10000 uM GlcN6P” value (glucosamine-6-phosphate [5]) was 0.000134 ± 1e-05 s⁻¹.

For AUAAAAGCGACAGCACUACAGAAAUGUAGUUGACGAGGAGGAGGUUUAUCGAAUUUUCGGCGGAUGCCUCAAAA, the kcat (glucosamine-6-phosphate [1]) was 2.17e-05 ± 9.3e-06 s⁻¹.

AUAAAAGCGCCAGAACUACAGAAAUGUAGUUGACGAGAAGGAGGUUUAACGAAUUUUCGGCGGAUGCCUCCAAA was tested, and the kcat (glucosamine-6-phosphate [1]) was under 1e-05 s⁻¹, the “self-cleavage kobs at 40 uM GlcN6P” value (glucosamine-6-phosphate [6]) was under 1e-05 s⁻¹ and the “self-cleavage kobs at 10000 uM GlcN6P” value (glucosamine-6-phosphate [5]) was under 1e-05 s⁻¹.

With AUAAAAGCGCCAGAACUACAGAAAUGUAGUUGACGAGGAGGAGGUUUAUCGAAUUUUCGGCCGAUGCCUUCAAA the kcat (glucosamine-6-phosphate [1]) was under 1e-05 s⁻¹, the “self-cleavage kobs at 40 uM GlcN6P” value (glucosamine-6-phosphate [6]) was under 1e-05 s⁻¹ and the “self-cleavage kobs at 160 uM GlcN6P” value (glucosamine-6-phosphate [2]) was under 1e-05 s⁻¹. For the same variant, the “self-cleavage kobs at 640 uM GlcN6P” value (glucosamine-6-phosphate [7]) was under 1e-05 s⁻¹ and the “self-cleavage kobs at 10000 uM GlcN6P” value (glucosamine-6-phosphate [5]) was under 1e-05 s⁻¹.

For AUAAAAGCGCCAGAACUACAGAAAUGUAGUUGACGAGGGUGAGGUUUAUCGAAUCUUCGGCGGAUGCCUCAAAA, the kcat (glucosamine-6-phosphate [1]) was 0.00728 ± 0.0021 s⁻¹, the KM (glucosamine-6-phosphate [3]) was 2200 ± 930 µM and the “self-cleavage kobs at 40 uM GlcN6P” value (glucosamine-6-phosphate [6]) was 0.000207 ± 4.1e-05 s⁻¹. For the same variant, the “self-cleavage kobs at 160 uM GlcN6P” value (glucosamine-6-phosphate [2]) was 0.000368 ± 8.6e-05 s⁻¹, the “self-cleavage kobs at 640 uM GlcN6P” value (glucosamine-6-phosphate [7]) was 0.00178 ± 0.00043 s⁻¹ and the “self-cleavage kobs at 2500 uM GlcN6P” value (glucosamine-6-phosphate [4]) was 0.00448 ± 0.00083 s⁻¹. The “self-cleavage kobs at 10000 uM GlcN6P” value (glucosamine-6-phosphate [5]) was 0.00562 ± 0.001 s⁻¹.

In the case of AUAAAAGCGCCAGAACUACAGAAAUGUAGUUGACGAGGAGGAGGUUUAUCGGAUUUUCGGCAGAUGCCUCCAAA, the kcat (glucosamine-6-phosphate [1]) is reported as 2.22e-05 ± 9.7e-06 s⁻¹, the “self-cleavage kobs at 160 uM GlcN6P” value (glucosamine-6-phosphate [2]) is reported as under 1e-05 s⁻¹ and the “self-cleavage kobs at 10000 uM GlcN6P” value (glucosamine-6-phosphate [5]) is reported as under 1e-05 s⁻¹.
